Data as given in article PMC3919030.

Experiments:
Conditions in all cases: remark: other sources report otherwise
[1] = target: T1, S. cerevisiae Vps4p (wild type) (S. cerevisiae), P52917; test: SEC
T1 chain: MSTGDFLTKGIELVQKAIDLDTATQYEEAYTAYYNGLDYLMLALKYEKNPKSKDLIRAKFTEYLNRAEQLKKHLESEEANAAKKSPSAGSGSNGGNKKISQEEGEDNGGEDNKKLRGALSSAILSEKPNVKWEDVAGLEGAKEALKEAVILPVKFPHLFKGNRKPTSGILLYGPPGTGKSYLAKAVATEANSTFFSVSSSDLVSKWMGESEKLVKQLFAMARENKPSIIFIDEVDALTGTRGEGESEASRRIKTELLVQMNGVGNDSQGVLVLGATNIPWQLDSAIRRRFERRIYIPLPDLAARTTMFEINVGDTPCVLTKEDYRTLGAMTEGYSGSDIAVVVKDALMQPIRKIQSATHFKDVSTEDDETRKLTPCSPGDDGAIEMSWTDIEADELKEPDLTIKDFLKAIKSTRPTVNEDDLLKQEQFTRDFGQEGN

[2] = target: T1, S. cerevisiae Vps4p (wild type) (S. …); test: AUC
[3] = target: T1, S. cerevisiae Vps4p (wild type) (S. …); test: AUC
[4] = target: T1, S. cerevisiae Vps4p (wild type) (S. …); test: SEC
[5] = target: T1, S. cerevisiae Vps4p (wild type) (S. …); test: SEC
[6] = target: T1, S. cerevisiae Vps4p (wild type) (S. …); test: SEC

stoichiometry N [1]: 6
stoichiometry N [2]: 6
stoichiometry N [3]: 6
stoichiometry N [4]: 6
stoichiometry N [5]: 6
stoichiometry N [6]: 6
B1: S. cerevisiae Vps4p (wild type), P52917 1-437 (enzyme)
chain: T1 chain
